Values quoted from earlier work in paper PMC9090500.

Molecular target: IL18 (Homo sapiens) (UniProt Q14116)
Sequence (Q14116 37-193): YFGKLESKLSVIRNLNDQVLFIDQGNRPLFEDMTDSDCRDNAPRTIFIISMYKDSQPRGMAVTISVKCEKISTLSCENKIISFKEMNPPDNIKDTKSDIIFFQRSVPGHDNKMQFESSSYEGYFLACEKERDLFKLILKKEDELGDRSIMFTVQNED

Sequence of IL18BP (O95998 31-194): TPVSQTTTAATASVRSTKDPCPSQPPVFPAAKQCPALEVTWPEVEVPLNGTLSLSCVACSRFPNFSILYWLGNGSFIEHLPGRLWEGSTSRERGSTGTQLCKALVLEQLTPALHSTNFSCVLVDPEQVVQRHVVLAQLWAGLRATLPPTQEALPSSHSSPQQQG

## IL18BP (from UniProt O95998)
  Kd: 400 nM
